# Assay results: publication PMC12446635
# Experiments:
# [1] = target: human plasma glycoproteins; experiment: far-Western, overlay or dot blot; human or rat plasma diluted 1:10, boiled with LDS sample buffer and 50 mM DTT, separated on 3 to 8% polyacrylamide gradient gels, transferred to BioTraceNT; GST-SLBR 5 nM in DPBS with 1x Blocking Reagent, 90 min, room temperature; detected with anti-GST; in duplicate
# [2] = target: biotinylated Neu5Gcα2-3Gal disaccharide; experiment: ELISA; settings: 500 nM immobilized GST-SLBR, read off a plot
# [3] = target: biotinylated Neu5Acα2-3Gal disaccharide; experiment: ELISA; settings: 500 nM immobilized GST-SLBR, read off a plot
# [4] = target: human plasma glycoproteins; experiment: far-Western blot densitometry (ImageJ); settings: human plasma; parent: est. 4.0; read off a plot
# rat plasma glycoproteins = experiment: far-Western blot densitometry (ImageJ); settings: rat plasma; parent: est. 13; read off a plot
# [5] = 1 μg/ml biotinylated disaccharide, parent: est. 0.18
# [6] = highest ligand concentration point, about 5 μg/ml biotinylated disaccharide, parent: est. 0.41
# [7] = 1 μg/ml biotinylated disaccharide, parent: est. 0.16
# [8] = highest ligand concentration point, about 5 μg/ml biotinylated disaccharide, parent: est. 0.31
Substance,fold decrease in total binding against wild-type SLBRHsa [1],"response [2, 5]","response [2, 6]","response [3, 7]","response [3, 8]",response (Signal Intensity (x1000)) [4],response (Signal Intensity (x1000)) (rat plasma glycoproteins)
GST-tagged SLBRHsa V370F (domain or fragment),3 fold,–,–,–,–,–,–
"GST-tagged SLBR_(SrpA) (Siglec-like binding region of the serine-rich repeat adhesin SrpA, Streptococcus sanguinis strain SK36), wild type (from UniProt A3CM52) Y368F",–,0.62 A450,0.99 A450,0.26 A450,0.54 A450,0.2,15
"GST-tagged SLBR_(SrpA) (Siglec-like binding region of the serine-rich repeat adhesin SrpA, Streptococcus sanguinis strain SK36), wild type (from UniProt A3CM52) Y368I",–,0.81 A450,1.1 A450,0.16 A450,0.32 A450,0,19
"GST-tagged SLBR_(SrpA) (Siglec-like binding region of the serine-rich repeat adhesin SrpA, Streptococcus sanguinis strain SK36), wild type (from UniProt A3CM52) Y368V",–,0.62 A450,0.98 A450,0.12 A450,0.21 A450,0,18
